The target in one data set is T1, BRI1 kinase (Arabidopsis thaliana, UniProt O22476).
T1 construct: The intracellular domain of BRI1(BRI1-KD) was cloned into pETBlue2 (Novagen) with a C-terminal His tag; made in house; host or cells: E. coli BL21 (DE3) Codon plus RIL
T1 sequence (O22476 883-1158 limits assumed): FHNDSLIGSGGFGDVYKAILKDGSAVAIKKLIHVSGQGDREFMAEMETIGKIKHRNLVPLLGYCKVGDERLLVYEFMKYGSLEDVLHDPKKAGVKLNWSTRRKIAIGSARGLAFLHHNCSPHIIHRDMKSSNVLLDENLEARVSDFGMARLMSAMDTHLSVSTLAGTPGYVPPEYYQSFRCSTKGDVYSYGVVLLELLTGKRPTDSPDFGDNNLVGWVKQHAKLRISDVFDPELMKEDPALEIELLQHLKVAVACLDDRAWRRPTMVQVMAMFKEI
Put plainly: In vitro phosphorylation of MBP-BKI1 by BRI1 kinase. The class given is biochemical. Conditions: MBP-BKI1, BRI1-KD-HIS, 200 μM ATP; read-out: Km as substrate of BRI1 kinase in vitro. As for the experimental part:
The intracellular domain of BRI1(BRI1-KD) was cloned into pETBlue2 (Novagen) with a C-terminal His tag. BKI1 was cloned into the pMAL-2cX vector (New England Biolabs) resulting in an Nterminal maltose-binding protein (MBP) fusion. BRI1-KD-HIS and MBP-BKI1 fusion proteins were expressed in BL21 (DE3) Codon plus RIL (Stratagene) and purified with Ni-NTA agarose (Qiagen) and […] (New England Biolabs), respectively. For the phosphorylation assays, each reaction contained 50 mM HEPES [pH7.4], 10 mM MgCl2, 10 mM MnCl2, 1 mM DTT, 200 μM ATP, 1 μl (10 μCi) [γ-32P] ATP, 0.5 μl of BRI1-His, different amounts of MBP-BKI1, and double deionized H2O in a final volume of 24 μl. Reactions were terminated by addition of 8 μl of 4×SDS loading buffer. Samples were separated on a 4-20% Tris-Glycine SDS-PAGE gel (Invitrogen), which was then stained, destained, dried, and visualized and quantified using a PhosphorImager. The kinetic analysis of the phosphorylation of MBP-BKI1 by BRI1 kinase was conducted with a GraphPad Prism 4 (http://www.graphpad.com/prism/Prism.htm). […] The BKI1-FLAG protein was detected by immunoblot analysis with anti-FLAG antibody.

For another data set, the target named is T2, TTL (Arabidopsis thaliana, UniProt Q9LVM5).
T2 construct: full length TTL, and full-length BIN2 were cloned into the pDBLeu vector; expressed in transfected cells; host or cells: yeast strain MaV203
T2 sequence (Q9LVM5 1-324): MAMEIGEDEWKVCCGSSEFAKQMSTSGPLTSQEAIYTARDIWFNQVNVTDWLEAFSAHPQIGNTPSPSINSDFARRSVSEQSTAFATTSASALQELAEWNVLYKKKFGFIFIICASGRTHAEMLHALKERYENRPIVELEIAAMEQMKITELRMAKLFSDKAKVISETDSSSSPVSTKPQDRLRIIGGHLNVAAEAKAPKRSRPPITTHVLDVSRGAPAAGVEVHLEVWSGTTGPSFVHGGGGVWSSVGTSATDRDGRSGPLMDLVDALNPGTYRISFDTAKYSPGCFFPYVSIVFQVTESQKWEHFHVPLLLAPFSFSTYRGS
Put plainly: Yeast two-hybrid interaction with TTL. The class given is binding.

The next data set deals with Arabidopsis seedlings. Put plainly: Hypocotyl length and growth phenotype of transgenic lines. It is filed as in vivo. The note with it: over-expression from 35S promoter in Col-0. The protocol: BKI1's function in brassinosteroid signaling was explored in several ways. First, we made transgenic plants harboring a β-glucuronidase (GUS) reporter gene expressed from the promoter of BKI1 to observe the expression pattern of BKI1 (FIG. 1G-J) during development. […] To explore the function of BKI1 in BRI1 signaling, we created RNAi (RNA interference) lines to knockdown BKI1 RNA levels.
Seedlings were grown in short day photoperiods for seven days. At least ten short-day grown seedlings were measured. In FIGS. 2A-B the pBKI1::GUS line was used as a control (control). RNAi-2 and RNAi-7 were two independent RNAi knockdown lines for BKI1. In FIG. 2 C-E, phenotype of plants overexpressing BKI1-FLAG, with Col-0 (left) and a BKI1-FLAG line (right) are shown. 2C. Short-day grown seedlings. 2D. Long-day grown seedlings. 2E. Long-day grown adult plants. In FIG. 2F, leaf morphology of seedlings grown in short days. Col-0 (right) and a BKI1-FLAG line (left) are shown. In FIG. 2G, over-expression of BKI1-YFP leads to a reduced response (hypocotyl length) to BL. At least twenty short-day grown seedlings were measured. In FIG. 2H, over-expression of BKI1-YFP leads to an enhanced response to BRZ220. At least twenty dark-grown seedlings were measured. In FIG. 2I, over-expression of BKI1-YFP results in reduced accumulation of dephosphorylated BES1. […]

The term Km denotes the concentration of substrate that gives half-maximal velocity.

Procedure for TTL: A ProQuest Two-Hybrid system with Gateway technology (Invitrogen) was used. […] The full-length (BKI1-FL), and various truncated proteins, 1-252 (BKI1-ΔCT1), 1-299 (BKI1-ΔCT2), and 253-337 (BKI1-CT) of BKI1 were cloned into the pEXPAD502 vector. The kinase domain of NIK1 (NIK1-KD) (Fontes et al. (2004) Genes Dev. 18:2545), BAK1 (BAK1-KD), CLV1 (CLV1-KD), BRL1 (BRL1-KD), BRL3 (BRL3-KD), full length TTL, and full-length BIN2 were cloned into the pDBLeu vector. Interactions were tested on SD medium minus Leu, Trp, and His, and containing 25 mM 3-Amino-1,2,4-Triazole (3AT), using the yeast strain MaV203 according to the manufacturer's manual.

B1: BKI1: BRI1-interacting protein of 337 amino acids, negative regulator of brassinosteroid signaling (SEQ ID NO:1) (protein, listed as Arabidopsis thaliana)
chain: METNLQQVKNSSQTFSEKQNPKQEASPSPISSTCSSPSHDFSFTISLQPLSSSSKHISPTLRSPSKTTSSYQQTDPFAVDLSPADEIFFHGHLLPLHLLSHLPVSPRTSTGSYNDGFTLPVKDILPDQPTNNNNNTENAITNISTEAKDDNTEDKAEGEIRVKTKPIKSFSLFGLSKWRKGFESNEREQEQQQQKIKKPMSLDLSHAVKKYIRMLFQKRGNGTQFWNRRQTSSYSFSSSLMGPNGNSKTMINGSYNKRDLIRGRRGELFSAPASMRTSPTNSGHLRVSTAGLSSSSGSTSSSSSDSTMEELQAAIQAAIAHCKNSSAVDRDDKVKDS
For the molecule B1, in the data set with BRI1 kinase, the Michaelis-Menten constant (Km) is around 1.55 µM. Besides, the “interaction with TTL in yeast” value with TTL is on record as “not”. Further, the “plant phenotype on over-expression” value in the data set on Arabidopsis seedlings is “dwarf plants”.
